# T1: recombinant human Nectin4 antigen (human, UniProt Q96NY8 32-349)
# T1 construct: construct not described
# T1 sequence (looked up): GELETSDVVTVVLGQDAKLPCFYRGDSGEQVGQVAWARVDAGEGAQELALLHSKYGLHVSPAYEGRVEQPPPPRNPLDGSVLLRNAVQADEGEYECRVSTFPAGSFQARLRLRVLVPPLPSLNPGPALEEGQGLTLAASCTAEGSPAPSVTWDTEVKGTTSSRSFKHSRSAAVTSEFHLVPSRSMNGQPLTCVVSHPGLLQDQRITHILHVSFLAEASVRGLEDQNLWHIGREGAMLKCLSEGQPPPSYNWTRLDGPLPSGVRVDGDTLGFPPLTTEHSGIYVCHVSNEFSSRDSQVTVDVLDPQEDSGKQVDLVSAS
# T2: huNectin4-His (human, UniProt Q96NY8 32-349)
# T2 construct: Immobilized on the SPR chip; also called humanNectin4; human Nectin4; not shown: His tag
# T2 sequence (looked up): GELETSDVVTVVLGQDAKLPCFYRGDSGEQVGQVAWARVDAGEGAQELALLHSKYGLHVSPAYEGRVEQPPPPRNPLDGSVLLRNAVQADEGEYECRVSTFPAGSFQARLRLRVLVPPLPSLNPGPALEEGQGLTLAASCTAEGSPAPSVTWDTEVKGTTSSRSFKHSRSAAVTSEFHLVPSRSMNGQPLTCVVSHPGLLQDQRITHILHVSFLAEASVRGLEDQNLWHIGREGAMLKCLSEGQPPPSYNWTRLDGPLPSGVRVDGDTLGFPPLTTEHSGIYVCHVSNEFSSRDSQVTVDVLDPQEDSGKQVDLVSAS
# T3: cynoNectin4-mFc (cyno, UniProt A0A2K5WES1 32-349)
# T3 construct: Immobilized on the SPR chip; also called cyanoNectin4; not shown: mFc (mouse Fc)
# T3 sequence: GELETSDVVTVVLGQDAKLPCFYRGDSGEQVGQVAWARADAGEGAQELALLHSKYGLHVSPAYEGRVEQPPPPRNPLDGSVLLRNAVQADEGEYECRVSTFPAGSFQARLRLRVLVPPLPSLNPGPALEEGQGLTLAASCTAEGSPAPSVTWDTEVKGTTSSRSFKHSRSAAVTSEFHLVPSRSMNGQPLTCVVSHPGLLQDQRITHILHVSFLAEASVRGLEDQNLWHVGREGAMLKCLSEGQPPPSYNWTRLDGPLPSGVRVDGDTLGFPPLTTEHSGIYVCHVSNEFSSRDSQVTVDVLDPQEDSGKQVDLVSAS
# Key:
# [1] = target: T1, recombinant human Nectin4 antigen; test: ELISA, coated antigen, PSB pH 6.0
# Description: 1) Coat ELISA plates with 100 μL of 1 μg/mL recombinant human Nectin4 antigen or cynoNectin4 antigen in carbonate-bicarbonate coating buffer. […] 2) Cover plates with sealing film and incubate overnight at 4° C. [0444] 3) Decant plates and tap out residual liquid on a stack of paper towels. [0445] 4) Wash wells twice by dispensing 200 μL of pH 6.0 or pH 7.4 ELISA incubation buffer to the wells and completely aspirate the contents. [0446] 5) Add 200 μL of pH 6.0 or pH 7.4 ELISA incubation buffer to the wells. Cover with sealing film and place the plate onto a plate shaker set to 50 rpm for 60 minutes at room temperature. [0447] 6) Decant plates and tap out residual liquid on a stack of paper towels. […] 7) Serially dilute test articles in 3-fold dilutions starting at 3000 ng/mL in pH 6.0 or pH 7.4 ELISA incubation buffer. […] 8) Add 100 μL/well of diluted test articles to the plates [0450] 9) Cover with sealing film and place the plates onto a plate shaker set to 50 rpm for 60 minutes at room temperature. [0451] 10) Decant plates and tap out residual liquid on a stack of paper towels. [0452] 11) Wash wells three times by dispensing 200 μL of pH 6.0 or pH 7.4 ELISA wash buffer to the wells and completely aspirate the contents. […] 12) Dilute the HRP secondary antibody at 1:2500 in pH 6.0 or pH 7.4 ELISA incubation buffer. [0454] […] 14) Cover with sealing film and place the plates onto a plate shaker set to 50 rpm for 60 minutes at room temperature. […] 15) Decant plates and tap out residual liquid on a stack of paper towels. […] 16) Wash wells three times by dispensing 200 μL of pH 6.0 or pH 7.4 ELISA wash buffer to the wells and completely aspirate the contents. [0458] 17) Dispense 50 μL per well of the TMB substrate solution into all wells of the plates.
# huNectin4-His = target: T2, huNectin4-His; test: SPR, huNectin4-His immobilized, pH 7.4
# Description: (§1) Binding kinetics of anti-Nectin4 antibodies were measured by surface plasmon resonance using a SPR2/4 instrument (Sierra Sensors, Hamburg, Germany) and flat amine sensor chips. The SPR sensor contained four flow cells (FC1-FC4), each of which was addressed individually or in groups. huNectin4-His was immobilized in FC2, and cynoNectin4-mFc in FC4. No protein was immobilized in FC1 and FC3 which were used as control surfaces for FC2 and FC4, respectively.
# (§2) All injections were done at a flow rate of 25 μL/min at 25° C. The sensor surface was activated with 1-ethyl-3-(3-dimethylaminopropyl)-carbodiimide (EDC) and N-hydroxysuccinimide (NHS) (200 mM/50 mM) for 480 seconds. HuNectin4-His (2 μg/mL in 10 mM NaAc, pH4.5) was injected for 480s and the surface was inactivated by injecting 1M ethanolamine-HCl for 480s. CynoNectin4 was immobilized using the same conditions as described for huNectin4-His, except that the cynoNectin4 was diluted into 10 mM NaAc buffer having pH 5.0. The control surface was activated and deactivated using the same conditions, but without injecting protein. PBST buffer (PBS pH 7.4 with 0.05% TWEEN20™) was used as running buffer for the surface preparation. The running solution was switched to PBST with 30 mM sodium bicarbonate with the pH adjusted as indicated in the figures before the analyte injections. The instrument was equilibrated with the running solution for one hour before the first analyte injection.
# (§3) The off-rate was measured for 360s. The chip surface was regenerated after each cycle of interaction analysis by injecting 6 μL of 10 mM glycine (pH 2.0). Flow cells 1 and 3 without immobilized protein were used as control surfaces for reference subtraction.
# cynoNectin4-mFc [2] = target: T3, cynoNectin4-mFc; test: SPR, cynoNectin4-mFc immobilized, pH 6.0
# Description: as §1, §2, §3
# cynoNectin4-mFc [3] = target: T3, cynoNectin4-mFc; test: SPR, cynoNectin4-mFc immobilized, pH 6.5
# Description: as §1, §2, §3
Binder,EC50 [1] [µg/mL],Kd (huNectin4-His) [nM],Kd (cynoNectin4-mFc [2]) [nM],Kd (cynoNectin4-mFc [3]) [nM],koff (huNectin4-His) [s⁻¹],kon (huNectin4-His) [M⁻¹ s⁻¹],koff (cynoNectin4-mFc [2]) [s⁻¹],kon (cynoNectin4-mFc [2]) [M⁻¹ s⁻¹],koff (cynoNectin4-mFc [3]) [s⁻¹],kon (cynoNectin4-mFc [3]) [M⁻¹ s⁻¹]
"BAP-143-wildtype (antibody, V domains shown, 150 kDa used in SPR; also called BAP143-00-00; benchmark (BM)) VH: EVQLVESGGGLVQPGGSLRLSCAASGFTFSSYNMNWVRQAPGKGLEWVSYISSSSSTIYYADSVKGRFTISRDNAKNSLSLQMNSLRDEDTAVYYCARAYYYGMDVWGQGTTVTVSS VL: DIQMTQSPSSVSASVGDRVTITCRASQGISGWLAWYQQKPGKAPKFLIYAASTLQSGVPSRFSGSGSGTDFTLTISSLQPEDFATYYCQQANSFPPTFGGGTKVEIK",0.0216,0.127,0.311,0.209,,,,,,
"BAP-143-06-33-03 (antibody, V domains shown, Used as a conjugate with a linker payload (CAB ADC)) VH: QVQLVQSGAEVKKPGASVKVSCKASGFTFSSYNMNWVRQARGQRLEWIGYISSSSSTIYYADSVKGRFTISRDNSKNTLYLQMNSLRAEDTAVYYCARAYYYGMDKWGQGTLVTVSS VL: DIQMTQSPSSVSASVGDRVTITCRASQGISGWLAWYQQKPGKAPKFLIYAASTLQSGVPSRFSGSGSGTDFTLTISSLQPEDFATYYCQQANSEPPTFGGGTKVEIK",0.0575,,,,,,,,,
"BAP-143-06-24-16 (antibody, V domains shown, Used as a conjugate with a linker payload (CAB ADC)) VH: EVQLVQSGAEVKKPGATVKISCKVSGFTFSSYNMNWIRQSPSRGLEWLGYISSSSSTIYYADSVKGRFTISRDNSKNTLYLQMNSLRAEDTAVYYCARAYYYGDDVWGQGTLVTVSS VL: DIQMTQSPSSVSASVGDRVTITCHASQGISGWLAWYQQKPGKAPKFLIYAASTLQSGVPSRFSGSGSGTDFTLTISSLQPEDFATYYCQQANSFPPTFGGGTKVEIK",0.0368,0.0067,0.207,0.0534,5.21e-06,778000,0.000579,2.8e+06,8.99e-05,1.68e+06
"BAP-143-07-03-12 (antibody, V domains shown, Used as a conjugate with a linker payload (CAB ADC)) VH: EVQLVESGGGLVQPGGSLRLSCAASGFTFSSYNMNWVRQAPGKGLEWVSYISSSSSTIYYADSVKGRFTISRDNAKNSLSLQMNSLRDEDTAVYYCARAYYYGMDKWGQGTTVTVSS VL: DIQMTQSPSSVSASVGDRVTITCRASQGISGWEAWYQQKPGKAPKFLIYAASTLQSGVPSRFSGSGSGTDFTLTISSLQPEDFATYYCQQANSFPPTFGGGTKVEIK",0.0533,0.925,1.15,1.6,0.000401,434000,0.00113,983000,0.000876,549000
"BAP-143-06-33-16 (antibody, V domains shown, Used as a conjugate with a linker payload (CAB ADC)) VH: EVQLVQSGAEVKKPGATVKISCKVSGFTFSSYNMNWIRQSPSRGLEWLGYISSSSSTIYYADSVKGRFTISRDNSKNTLYLQMNSLRAEDTAVYYCARAYYYGDDVWGQGTLVTVSS VL: DIQMTQSPSSVSASVGDRVTITCRASQGISGWEAWYQQKPGKAPKFLIYAASTLQSGVPSRFSGSGSGTDFTLTISSLQPEDFATYYCQQANSFPPTFGGGTKVEIK",0.0669,0.17,0.187,0.163,2.01e-05,119000,0.000273,1.46e+06,0.00026,1.6e+06
"BAP-143-00-01 (antibody, V domains shown, Used as a conjugate with a linker payload (CAB ADC)) VH: EVQLVESGGGLVQPGGSLRLSCAASGFTFSSYNMNWVRQAPGKGLEWVSYISSSSSTIYYADSVKGRFTISRDNAKNSLSLQMNSLRDEDTAVYYCARAYYYGMDVWGQGTTVTVSS VL: DIQMTQSPSSVSASVGDRVTITCRASQGISGWEAWYQQKPGKAPKFLIYAASTLQSGVPSRFSGSGSGTDFTLTISSLQPEDFATYYCQQANSFPPTFGGGTKVEIK",,1.81,1.85,1.88,0.000517,285000,0.00142,769000,0.000859,457000
